The source of these data is US20160362487A1 (Regeneron, published 2016).

Test [1] concerns the target T1, human IL-33 (R&D Systems, #3625-IL-010/CF) (human, UniProt O95760 112-270).
T1 construct: Commercial recombinant protein; also called hIL-33; interleukin-33
T1 sequence (looked up): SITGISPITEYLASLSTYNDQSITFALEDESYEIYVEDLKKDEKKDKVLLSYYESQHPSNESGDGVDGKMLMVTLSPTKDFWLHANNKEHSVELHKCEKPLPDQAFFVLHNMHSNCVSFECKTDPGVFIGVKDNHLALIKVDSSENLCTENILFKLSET
The test is described as follows: SPR 25C pH7.4, mAb captured. The method, then:
(§1) Equilibrium dissociation constants (KD values) for IL-33 binding to purified anti-IL-33 monoclonal antibodies were determined using a real-time surface plasmon resonance biosensor using a Biacore 4000 instrument. The Biacore sensor surface was first derivatized by amine coupling with either a polyclonal rabbit anti-mouse antibody (GE, # BR-1008-38) or with a monoclonal mouse anti-human Fc antibody (GE, # BR-1008-39) to capture anti-IL-33 monoclonal antibodies expressed with mouse or with human IgG4 constant regions, respectively. All Biacore binding studies were performed in 0.01M ADA pH 7.4, 0.15M NaCl, 3 mM EDTA, and 0.05% v/v Surfactant Tween-20 (ABS-ET running buffer). […] Association of either hIL-33 or MfIL-33-6His to the captured monoclonal antibody was monitored for 4 minutes and their dissociation in ABS-ET running buffer was monitored for 10 minutes. The effect of reduced pH on the binding of each anti-IL-33 antibody to either hIL-33 or MfIL-33-6His was studied using an in-line pH chase assay format in 0.01M ADA pH 6.0, 0.15M NaCl, 3 mM EDTA, and 0.05% v/v Surfactant Tween-20 (ABS-ET pH6 buffer). To achieve this, association of either hIL-33 or MfIL-33-6His to the captured monoclonal antibody was monitored for 4 minutes in ABS-ET running buffer. Following a 30 second dissociation of either hIL-33 or MfIL-33-6His in ABS-ET running buffer, ABS-ET pH6 buffer was injected for 3 minutes, and the analyte dissociation under the low-pH conditions was measured. All the binding kinetic experiments were performed at both 25° C. and 37° C. Kinetic association (kₐ) and dissociation (kd) constants were determined by fitting the real-time sensorgrams to a 1:1 binding model using Scrubber 2.0c curve fitting software. Binding dissociation equilibrium constants (KD) and dissociative half-lives (t½) were calculated from the kinetic rate constants as: […]

In test [2] the target is T2, cynomolgus monkey IL-33 expressed with a C-terminal hexahistidine tag (cynomolgus monkey).
T2 construct: also called MfIL-33-6His; Mf-IL-33-6His
T2 chain: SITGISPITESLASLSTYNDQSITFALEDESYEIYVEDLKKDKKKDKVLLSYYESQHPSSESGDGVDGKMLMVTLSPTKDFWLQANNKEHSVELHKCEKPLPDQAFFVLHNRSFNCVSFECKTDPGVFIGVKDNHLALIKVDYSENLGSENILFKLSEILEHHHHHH
The test is described as follows: SPR 25C pH7.4, mAb captured. The method, then:
as §1

In test [3] the target is T1, human IL-33 (R&D Systems, …). The test is described as follows: SPR 37C pH7.4, mAb captured. The method, then:
as §1

For test [4], the target named is T2, cynomolgus monkey IL-33 expressed with …. The test is described as follows: SPR 37C pH7.4, mAb captured. Here is the method:
as §1

For test [5] the target is unchanged. The test is described as follows: BLI; mAb-1 on captured MfIL-33-6His. Here is the method:
(§2) Binding competition between a panel of different anti-IL-33 monoclonal antibodies was determined using a real time, label-free bio-layer interferometry assay on an Octet® HTX biosensor (ForteBio, A Division of Pall Life Sciences). The experiment was performed at 25° C. using a buffer of 0.01M HEPES pH7.4, 0.15M NaCl, 3 mM EDTA, 0.05% v/v Surfactant Tween-20, and 0.1 mg/ml BSA (HBS-ET kinetics buffer) with the plate shaking at a speed of 1000 rpm. […] The antigen-captured biosensors were then saturated with a first anti-IL-33 monoclonal antibody (subsequently referred to as mAb-1) by immersion into wells containing 50 μg/mL solution of mAb-1 for 5 minutes. The biosensors were then dipped into wells containing a 50 μg/mL solution of a second anti-IL-33 monoclonal antibody (subsequently referred to as mAb-2) for 4 minutes. The biosensors were washed in HBS-ET kinetics buffer in between every step of the experiment. The real-time binding response was monitored during the experiment, and the maximum binding response for each binding step was recorded. The response of mAb-2 binding to MfIL-33-6His pre-complexed with mAb-1 was measured, and competitive/non-competitive behavior of different anti-IL-33 monoclonal antibodies with respect to each other was determined.

For test [6], the target named is T3, pre-formed complex of hIL-33 and captured hST2-MMH (human, UniProt O95760 112-270).
T3 construct: Ligand-receptor complex on the sensor: hST2-MMH captured by anti-myc mAb and saturated with 100 nM hIL-33; also called hIL-33 pre-complexed with hST2-MMH
The test is described as follows: SPR 25C, 100 nM mAb over hIL-33/hST2-MMH complex. The method, then: The ability of anti-IL-33 antibodies to bind to a pre-formed complex of IL-33 with ST2 was tested using Biacore T-200 instrument equipped with a real-time surface plasmon resonance biosensor. The experiment was performed at 25° C. with a running buffer composed of 0.01M HEPES pH 7.4, 0.15M NaCl, 3 mM EDTA, and 0.05% v/v Surfactant Tween-20 (HBS-ET). […] The captured hST2-MMH surface was then saturated by injecting 100 nM of human IL-33 (hIL-33; R&D Systems, #3625-IL-010/CF) for 3 minutes followed by a 3 minute injection of a 100 nM solution of the anti-IL-33 monoclonal antibody. The real-time binding response was monitored during the entire course of the experiment, and the observed binding response at 3 minutes after injection of anti-IL-33 antibody to the pre-formed complex of hIL-33 and captured hST2-MMH was recorded and tabulated and shown in Table 7. No non-specific binding of anti-IL-33 monoclonal antibody to the anti-myc tag capture surface was observed.

For test [7], the target named is T2, cynomolgus monkey IL-33 expressed with …. The test is described as follows: BLI; captured MfIL-33-6His, mAb-1 step with Buffer. The method, then:
as §2
In general terms: BLI is a label-free optical method that tracks binding on a fibre tip over time.

Positions count from the first letter of the chain named. Names and notes keep the numbering of the source.

B1: H4H9640P (antibody, human IgG4, V domains shown)
VH: QVQLQESGPGLVKPSETLSLTCTVSGGSISSYYWSWIRQPPGKGLELIGYIYYSGSTNYNPSLKSRVTISVDTSKNHFSLKLSSVTAADTAVYYCARSQYTSSWYGSFDIWGQGTMVTVSS
VL: DIQMTQSPSSVSASVGDRVTITCRASQGISTWLAWFQQKPGKAPKLLIYAASTLQGGVPSRFSGSGSGPEFTLTISSLQPEDFATYYCQQANSFPWTFGQGTKVEIK
notes: Human IgG4 Fc (H4H)
Regarding B1, the equilibrium dissociation constant (Kd) – broadly, the constant that tells how readily two partners part at equilibrium – amounted to 260 pM in test [1], 3060 pM in test [2], 498 pM in test [3] and 5380 pM in test [4]. The off-rate (koff) – broadly, the rate constant with which the complex falls apart – came out at 0.000237 s⁻¹ in test [1], 0.00137 s⁻¹ in test [2], 0.000573 s⁻¹ in test [3] and 0.00436 s⁻¹ in test [4]. For the same molecule, the on-rate constant (kon) (as a rule, the rate constant with which the complex forms) in test [1] came out at 912000 M⁻¹ s⁻¹; in test [2] it was 450000 M⁻¹ s⁻¹; in test [3], 1.15e+06 M⁻¹ s⁻¹; in test [4], 810000 M⁻¹ s⁻¹. The t½ (usually the time needed for the level to fall by half in the phase considered) in test [1] is 49 min; in test [2], 8 min; in test [3], 20 min; in test [4], 2.6 min. The “mAb-1 Binding (nm)” value in test [5] came out at 0.61 nm. For the same molecule, the “Antibody Binding Response (RU)” value in test [6] was -1 RU. The “mAb-2 Binding to the Pre-complex of mAb-1 & MfIL-33-6xHis” value (“mAb-2 Binding to the Pre-complex” for short) in test [7] was 0.33 nm.

B2: H4H9659P (antibody, human IgG4, V domains shown)
VH: QVQLVQSGAEVKKPGASVKVSCKASGYTFNSYGISWVRQAPGQGLEWMGWISSHNGNSHYVQKFQGRVSMTTDTSTSTAYMELRSLRSDDTAVYYCARHSYTTSWYGGFDYWGQGTLVTVSS
VL: B1 VL with I29F, T31S, F36Y, K45Q, T53S, G56S, P69S, E70D, W96L, Q100G
notes: Human IgG4 Fc (H4H)
In test [1], B2 had a Kd of 327 pM, a koff of 0.000172 s⁻¹, a kon of 526000 M⁻¹ s⁻¹ and a t½ of 67 min. In test [2], this molecule had a Kd of 1500 pM, a koff of 0.000486 s⁻¹, a kon of 325000 M⁻¹ s⁻¹ and a t½ of 24 min. Moreover, in test [3], the Kd was 570 pM, the koff turned out to be 0.000403 s⁻¹, the kon is 707000 M⁻¹ s⁻¹ and the t½ worked out at 29 min. In test [4], this molecule came in with a dissociation constant Kd of 3110 pM, a koff of 0.00186 s⁻¹, a kon of 598000 M⁻¹ s⁻¹ and a t½ of 6 min. Also, the “mAb-1 Binding (nm)” value in test [5] stood at 0.56 nm. The “Antibody Binding Response (RU)” value in test [6] was -1 RU. The “mAb-2 Binding to the Pre-complex” value in test [7] turned out to be 0.31 nm.

B3: H4H9660P (antibody, human IgG4, V domains shown)
VH: EVQLVESGGGLVQPGGSLRLSCAASGITLSSYGMSWVRQAPGKGLEWVASIFGSGGGPYYADSVKGRFTMSRDNSKNTLYLQMNSLRAEDTAVYYCAKDRYSGSYYGGFDYWGRGTLVTVSS
VL: DIQMTQSPSSVSASVGDRVTITCRASQGITSWLAWYQQKPGKAPTLLIYAASSLQTGVPSRFSGSGSGTDFTLTISSLQPEHFATYYCQQANSFPPTFGGGTKVEIK
notes: Human IgG4 Fc (H4H)
In test [1], B3 showed a dissociation constant (Kd) of 322 pM, a koff of 0.000224 s⁻¹, a kon of 696000 M⁻¹ s⁻¹ and a t½ of 52 min. In test [2], this molecule came in with a Kd of 3490 pM, a koff of 0.00149 s⁻¹, a kon of 426000 M⁻¹ s⁻¹ and a t½ of 8 min. Also, in test [3], the Kd stood at 596 pM, the koff amounted to 0.000479 s⁻¹, the kon worked out at 803000 M⁻¹ s⁻¹ and the t½ turned out to be 24 min. In test [4], this molecule had a Kd of 6530 pM, a koff of 0.00444 s⁻¹, a kon of 680000 M⁻¹ s⁻¹ and a t½ of 2.6 min. Besides, in test [5], the “mAb-1 Binding (nm)” value came to 0.58 nm. Moreover, the “Antibody Binding Response (RU)” value in test [6] was -1 RU. The “mAb-2 Binding to the Pre-complex” value in test [7] was 0.3 nm.

B4: H4H9663P (antibody, human IgG4, V domains shown)
VH: QVQLVQSGAEVKKPGASVKVSCKASGYTFTGHYMYWMRQAPGQGLEWMGWINPNSGGTNYAQKFQDRVTMTRDTSISTAYMELSRLRSDDTAVYYCARGRYGSSWYGGFEYWGQGTLVTVSS
VL: B3 VL with T45N, S52A, T56S, H82D, A84T, N92Y, F94L, P96L
notes: Human IgG4 Fc (H4H)
In test [1], B4 came in with a Kd of 305 pM, a koff of 0.000414 s⁻¹, a kon of 1.36e+06 M⁻¹ s⁻¹ and a t½ of 28 min. For the same molecule, in test [2], binding was characterised by a dissociation constant (Kd) of 1060 pM, the dissociation rate constant (koff) amounted to 0.000925 s⁻¹, the kon is 869000 M⁻¹ s⁻¹ and the t½ was 12 min. In test [3], this molecule displayed a Kd of 677 pM, a koff of 0.00124 s⁻¹, a kon of 1.83e+06 M⁻¹ s⁻¹ and a t½ of 9 min. Besides, in test [4], the Kd turned out to be 2220 pM, the off-rate (koff) was 0.00361 s⁻¹, the kon amounted to 1.62e+06 M⁻¹ s⁻¹ and the t½ came to 3.2 min. Also, the “mAb-1 Binding (nm)” value in test [5] was determined as 0.54 nm. Besides, the “Antibody Binding Response (RU)” value in test [6] was -1 RU. In addition, in test [7], the “mAb-2 Binding to the Pre-complex” value is 0.31 nm.

B5: H4H9662P (antibody, V domains shown)
VH: EVQLVESGGGLVQPGGSLRLSCAASGFTFSSYALTWVRQAPGKGLEWVSFISGSGGRPFYADSVKGRFTISRDNSKNMLYLQMNSLRAEDTAIYYCAKSLYTTSWYGGFDSWGQGTLVTVSS
VL: B3 VL with I29V, T30V, T45K, T56S, H82D, A91S, P96F, F98L, G100P, E105D
notes: Human IgG4 Fc (H4H)
In test [1], B5 gave a Kd of 308 pM, a koff of 0.00025 s⁻¹, a kon of 811000 M⁻¹ s⁻¹ and a t½ of 46 min. In test [2], the Kd came to 1250 pM, the koff turned out to be 0.000442 s⁻¹, the kon turned out to be 353000 M⁻¹ s⁻¹ and the t½ came out at 26 min. In test [3], this molecule had a dissociation constant Kd of 443 pM, a koff of 0.00062 s⁻¹, a kon of 1.4e+06 M⁻¹ s⁻¹ and a t½ of 19 min. In test [4], this molecule registered a Kd of 2240 pM, a koff of 0.00158 s⁻¹, a kon of 707000 M⁻¹ s⁻¹ and a t½ of 7 min. For the same molecule, in test [5], the “mAb-1 Binding (nm)” value was determined as 0.56 nm. In test [6], the “Antibody Binding Response (RU)” value was determined as 0 RU. Further, the “mAb-2 Binding to the Pre-complex” value in test [7] was found to be 0.26 nm.
